According to patent US10174359:

Experiments:
cyclin B1-cdk1 complex = cyclin B1-cdk1 complex (UniProt P14635)
[1] = test system: separase sensor, wild-type Scc1 (142-467), histone H2B localization-targeting sequence

Chain of cyclin B1-cdk1 complex (P14635 whole entry, looked up, one chain of several): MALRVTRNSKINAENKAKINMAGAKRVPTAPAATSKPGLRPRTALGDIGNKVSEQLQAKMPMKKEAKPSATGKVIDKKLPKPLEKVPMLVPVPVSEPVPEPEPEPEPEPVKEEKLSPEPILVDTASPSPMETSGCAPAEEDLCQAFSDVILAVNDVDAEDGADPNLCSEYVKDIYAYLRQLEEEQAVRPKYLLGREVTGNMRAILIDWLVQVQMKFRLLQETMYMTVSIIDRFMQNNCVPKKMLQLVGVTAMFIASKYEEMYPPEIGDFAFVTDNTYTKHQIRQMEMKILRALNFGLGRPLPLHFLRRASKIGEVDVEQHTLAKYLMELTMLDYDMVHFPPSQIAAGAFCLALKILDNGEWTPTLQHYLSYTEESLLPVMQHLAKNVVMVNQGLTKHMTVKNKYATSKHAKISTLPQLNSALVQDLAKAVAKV

| Substance | cdk1 activity (histone H1 kinase assay) (cyclin B1-cdk1 complex) | kinase activity (histone H1 as a substrate) (cyclin B1-cdk1 complex) | cleavage of the sensor (immunoblot with anti-GFP antibody, FIG. 2D) [1] |
| --- | --- | --- | --- |
| myc-tagged mouse separase, wild-type (WT) | cdk1 activity was markedly inhibited in the separase-bound fraction | in the separase-bound fraction, kinase activity is inhibited (separase-bound cyclin B1-cdk1) | – |
| separase | – | – | The separase sensor localized in chromosome in the cells in anaphase is cleaved |
